US20050106141A1, “Hairless protein-interacting partner complexes and methods thereof for the beautification and/or improvement of mammalian skin” (The Procter & Gamble Company, priority 2003, published 2005)

Target: LexA BD-HRt (mouse)
Assay: yeast two-hybrid library screen; number of positive clones with this identity

Sequence of LexA BD-HRt (mouse) (P0A7C2 other isoform, or with tags, fused parts or gaps limits assumed): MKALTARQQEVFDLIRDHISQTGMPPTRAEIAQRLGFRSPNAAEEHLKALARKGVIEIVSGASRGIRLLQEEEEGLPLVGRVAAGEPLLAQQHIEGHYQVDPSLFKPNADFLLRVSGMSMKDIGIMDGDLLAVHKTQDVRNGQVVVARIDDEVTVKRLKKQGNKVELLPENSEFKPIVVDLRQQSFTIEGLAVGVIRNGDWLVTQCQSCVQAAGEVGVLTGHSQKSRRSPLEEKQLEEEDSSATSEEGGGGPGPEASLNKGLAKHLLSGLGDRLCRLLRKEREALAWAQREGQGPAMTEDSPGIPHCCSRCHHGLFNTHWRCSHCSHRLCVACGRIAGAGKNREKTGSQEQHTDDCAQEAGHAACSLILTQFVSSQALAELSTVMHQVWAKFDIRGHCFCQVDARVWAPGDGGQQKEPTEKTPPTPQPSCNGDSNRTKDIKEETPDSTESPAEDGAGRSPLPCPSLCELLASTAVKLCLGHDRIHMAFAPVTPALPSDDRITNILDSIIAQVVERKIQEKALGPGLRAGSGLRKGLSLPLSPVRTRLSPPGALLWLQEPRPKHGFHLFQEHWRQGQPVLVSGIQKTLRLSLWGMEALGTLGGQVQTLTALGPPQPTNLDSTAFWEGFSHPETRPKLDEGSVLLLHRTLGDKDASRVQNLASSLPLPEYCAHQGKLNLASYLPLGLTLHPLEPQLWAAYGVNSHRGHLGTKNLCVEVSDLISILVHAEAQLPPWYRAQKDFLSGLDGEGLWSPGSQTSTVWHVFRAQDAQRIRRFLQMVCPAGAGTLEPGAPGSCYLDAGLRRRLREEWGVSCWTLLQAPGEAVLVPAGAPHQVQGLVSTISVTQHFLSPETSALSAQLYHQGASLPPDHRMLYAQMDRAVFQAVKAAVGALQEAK

Hits: 1
Substance: Homo Sapiens HIC Protein Isoform P32 and Isoform 40 (from UniProt Q9P1T7 1-246)
